Experiment [1] concerns the target recombinant human B7H3 extra cellular domain (ECD) protein (human) (UniProt Q5ZPR3). The experiment is described as follows: Octet binding assay. (In general: In BLI a coated tip is dipped into the sample, and binding shifts an interference pattern.)
Experiment [2] addresses human B7H3 on A498 cells (human) (UniProt Q5ZPR3). The experiment is described as follows: flow cytometry, whole cell binding to B7H3+ A498 cells, MFI.
The target is the same in experiment [3]. The experiment is described as follows: flow cytometry, whole cell binding to B7H3+ A498 cells, MFI (FITC).
Experiment [4] has the same target. The experiment is described as follows: flow cytometry, whole cell binding to B7H3+ A498 cells, MFI. This is another data set of the same source.

human B7H3 on A498 cells (human), sequence (Q5ZPR3 29-534 limits assumed): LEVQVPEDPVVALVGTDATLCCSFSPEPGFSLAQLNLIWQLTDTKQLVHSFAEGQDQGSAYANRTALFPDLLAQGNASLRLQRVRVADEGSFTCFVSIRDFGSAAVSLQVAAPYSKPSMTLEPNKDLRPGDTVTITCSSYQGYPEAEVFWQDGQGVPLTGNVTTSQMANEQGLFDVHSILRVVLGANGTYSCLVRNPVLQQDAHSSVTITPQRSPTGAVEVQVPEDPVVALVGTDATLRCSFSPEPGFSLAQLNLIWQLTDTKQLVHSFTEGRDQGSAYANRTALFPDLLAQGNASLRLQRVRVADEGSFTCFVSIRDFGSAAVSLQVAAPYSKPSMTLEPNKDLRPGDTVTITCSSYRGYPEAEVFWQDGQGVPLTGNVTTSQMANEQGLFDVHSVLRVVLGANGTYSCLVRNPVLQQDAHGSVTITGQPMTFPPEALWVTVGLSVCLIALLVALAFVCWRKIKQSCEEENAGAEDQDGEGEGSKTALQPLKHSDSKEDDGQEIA
recombinant human B7H3 extra cellular domain (ECD) protein (human), sequence (Q5ZPR3 29-461): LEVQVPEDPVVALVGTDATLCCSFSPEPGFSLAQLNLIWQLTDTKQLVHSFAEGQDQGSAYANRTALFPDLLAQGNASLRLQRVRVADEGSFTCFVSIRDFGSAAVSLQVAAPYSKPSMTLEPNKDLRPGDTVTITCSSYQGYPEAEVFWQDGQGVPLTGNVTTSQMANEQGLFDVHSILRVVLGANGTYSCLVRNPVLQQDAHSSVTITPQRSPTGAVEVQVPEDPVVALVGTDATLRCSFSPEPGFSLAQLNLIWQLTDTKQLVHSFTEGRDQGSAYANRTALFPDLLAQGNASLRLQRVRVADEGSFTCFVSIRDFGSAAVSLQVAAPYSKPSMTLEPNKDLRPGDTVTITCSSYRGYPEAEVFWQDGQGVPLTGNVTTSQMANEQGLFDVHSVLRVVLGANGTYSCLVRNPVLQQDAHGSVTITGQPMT

Broadly, the Kd is the equilibrium constant for the complex coming apart. One may read the koff as a measure of how fast the partners let go of each other. By kon is commonly meant the second-order rate constant of association. As usually defined, the EC50 is the concentration at which the effect is half-maximal. Read a high EC50 as a less potent agent. Regarding “Reference Ab 1 (an enoblituzumab analog) (antibody)”, in experiment [1], the Kd came out at 0.739 nM, the koff stood at 0.000199 s⁻¹ and the on-rate constant (kon) turned out to be 269000 M⁻¹ s⁻¹. Moreover, the EC50 in experiment [2] turned out to be 2.18 nM. The substance also gave an EC50 in experiment [3] of 0.697 nM. The substance also had an EC50 in experiment [4] of 7.94 nM.

The values are drawn from US20250243278A1.
